In the nanobody polyreactivity screen of Harvey et al. (2022):

Test: yeast display, Sf9 membrane polyspecificity reagent, FACS + sequencing; frameworks hold sequencing errors
How it was run: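 Polyreactivity labels are assigned by the sorting gate from which each nanobody was recovered. The gates were low and high (top ~1%), set on anti-HA fluorescence for expression and streptavidin fluorescence for reagent binding. Before sorting, galactose-induced (36–48 hours) yeast display cells were stained for 1 hour at 4 °C with 10% biotinylated, detergent-solubilized Sf9 membrane reagent.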

Row | Sequence | polyreactivity (PSR sort gate)
1 | QVQLVESGGGLVQAGGSLRLSCAASGSTFQYYAMGWSRQAPGKERELVAAISYGGSRTYYADSVKGRFTISRDNAKNTVYLQMNSLKPEDTAVYYCAKEKYRALAPYYYWGQGTQVTVSS | high polyreactivity
2 | QVQLVESGGGLVQAGGSLRLSCAASGSTFQYYAMGWYRQAPGKERELVAAISSGGSTYYADSVKGRFTISRDNAKNTVYLQMNSLKPEDTAVYYCAADFVKRQANRQFDYWGQGTQVTVSS | high polyreactivity
3 | QVQLVESGGGLVQAGGSLRLSCAASGSTFQYYAMGWYRQAPGKERELVATISTSGGRTYYADSVKGRFTISRDNAKNTVYLQMNSLKPEDTAVYYCAKRRYSTYYWTFDYWGQGTQVTVSS | high polyreactivity
4 | QVQLVESGGGLVQAGGSLRLSCAASGSTFRANAMGWYRQAPGKERELVAAISWSGGRTYYADSVKGRFTISRDNAKNTVYLQMNSLKPEDTAVYYCAAVTTQYIYSVPYYYWGQGTQVTVSS | high polyreactivity
5 | QVQLVESGGGLVQAGGSLRLSCAASGSTFRCYAMGGYRQATGKERELVAAIRSAGSTDYADSVKGRFTISRDNAKITVYLQMNILKQEDTAVYYCAAYFRYRSSRYGYWGQGTQVTVSS | high polyreactivity
6 | QVQLVESGGGLVQAGGSLRLSCAASGSTFRFNTMGWYRQAPGKERELVAAISYSGGSTYYADSVKGRFTISRDNAKNTVYLQMNSLKPEDTAVYYCAVQAWYLTYSYPYSKGYYWGQGTQVTVSS | high polyreactivity
7 | QVQLVESGGGLVQAGGSLRLSCAASGSTFRFNTMGWYRQAPGKERGLVACIAAGTTTNYADSVKGRFTISRDNAKNTVYLQMNSLKPEDAAVYYCAALNAFNTGHWYWGQGTQVTVSS | low polyreactivity
8 | QVQLVESGGGLVQAGGSLRLSCAASGSTFRFYAMGWYRQAPGKERELVAVISFNDGSTYYADSVKGRFTISRDNAKNTVYLQMNSLKPEDTAVYYCATDELDSWWYEYEYWGQGTQVTVSS | low polyreactivity
9 | QVQLVESGGGLVQAGGSLRLSCAASGSTFRFYAMGWYRQEPGKERELVAAITSSGGSTYYADSVKGRFTISRDNAKNTVYLQMNSLKPEDTAVYYCNAYPNPVSYELDYWGQGTQVTVSS | low polyreactivity
10 | QVQLVESGGGLVQAGGSLRLSCAASGSTFRGYAMGSYRQAPGKETELVATITSGGSTNYADSVKGRFTISRDNAKNTVSLQMNSLKPEDTAVYYCNARWVPSYWKYFHANYGYWGQGTQVTVSS | high polyreactivity
11 | QVQLVESGGGLVQAGGSLRLSCAASGSTFRGYAMGWYRQAPGKERELVAAISRADITNYADSVKGRFTISRDNAKNTVYLQMNSLKPEDTAVYYCNAGVGARESDYWGQGTQVTVSS | low polyreactivity
12 | QVQLVESGGGLVQAGGSLRLSCAASGSTFRGYAMGWYRQAPGKERELVATITSGGSTNYADSVKGRFTISRDNGKNTVYLQMNSLKPEDTAVYYCNARWVPRYWYDYWGQGTQVTVSS | high polyreactivity
13 | QVQLVESGGGLVQAGGSLRLSCAASGSTFRGYAMGWYRQATGKERELVAAISSSGGRTYYADSVKGRFTISRDNAKNPVYLQMNSLKREDTAVYYCNAASKNSVRYAYQNYDYRGQGTQVTVSS | high polyreactivity
14 | QVQLVESGGGLVQAGGSLRLSCAASGSTFRGYAMGWYRQVPGKERELVADISWSGTSTYYADSVKGRFTISRDNAKNTFYLQLNSVIPEDTAVYYCAKGGRDRSRKYYYWGQGTQVTVSS | high polyreactivity
15 | QVQLVESGGGLVQAGGSLRLSCAASGSTFRGYTMGWYRQAPGKEREFVATISSRGGSTNYADSVKGRFTISRDNAKNTVYLQMNSMKPEDTAVYYCNVRRVWWEWPRGDSWGQGTQVTVSS | high polyreactivity
16 | QVQLVESGGGLVQAGGSLRLSCAASGSTFRGYVMGWYRQAPGKERELVAAISRSGTSTYYADSVKGRFTISRDNAKNTVYLQMNSLKPEDTAVYYCAAQLYGHGEDYWGQGTQVTVSS | high polyreactivity

Row | Sequence | polyreactivity (PSR sort gate)
17 | QVQLVESGGGLVQAGGSLRLSCAASGSTFRHYAMGWYRQAPGKERELVAAISSRGGSTYYADSVKGRFTISRDNAKNTVYLQMNSLKPEDTAVYYCNVVGYQRPSYRHMDYWGQGTQVTVSS | high polyreactivity
18 | QVQLVESGGGLVQAGGSLRLSCAASGSTFRIYAMRSYRQAPGKERELGARISWNGGRTYYADSVKGRFTISRVNAKNTVYLQMNSLKPEDTAGYYCNALVPPGYDYWGQGTQVSVSS | high polyreactivity
19 | QVQLVESGGGLVQAGGSLRLSCAASGSTFRIYTMGWYRQAPGKERELVAGISSSGNTNYADSVKGRFTISRDNAKNTVYLQMNSLKPEDTAVYYCNAASLKFTSPVRFGYWGQGTQVTVSS | high polyreactivity
20 | QVQLVESGGGLVQAGGSLRLSCAASGSTFRKYAMGWYRQAPGKEREFVAAITWSTGTTYYADSVKGRFTISRDNAQNTVYLQMNSLKPEDTAVYYCSADSKPPHELYESIEHESWGQGTQVTVSA | low polyreactivity
21 | QVQLVESGGGLVQAGGSLRLSCAASGSTFRKYAMGWYRQAPGKERELVAAISRGGDSTYYADSVKGRFTISRENAKNTVYLQMNSLKPEDTAVYYCAADTRPGYSGFEYRGQGTQVTVSS | high polyreactivity
22 | QVQLVESGGGLVQAGGSLRLSCAASGSTFRKYAMGWYSQAPGKERELVAAIRRNGVSTYYADSVKGRFTISLDNAKNTVYLQMNSLKPEDTAVYYCNARTKPDYDWGQGTQVTVSS | high polyreactivity
23 | QVQLVESGGGLVQAGGSLRLSCAASGSTFRLYAMGWYRQAPGKERELDAAISGSGGSTYYADSVKGRFTISRDYEKNTVYLQMNSLKPVDTAVYYCAAEVVRRYYAGRGYWGHGTQVTVSS | high polyreactivity
24 | QVQLVESGGGLVQAGGSLRLSCAASGSTFRLYTMGWYRPAPVKERELVAAITSGGSTNYADSVKGRFTISRDNAKNTVYLQMNSLKPEDTSVYYCAIAKRFPSFDYWGQGTQVTVSS | low polyreactivity
25 | QVQLVESGGGLVQAGGSLRLSCAASGSTFRPYAMGWYRQAPGKEMELVARMTGSGDSTYYADSVKGRFTISRDNAKNTVYLQMNSLKPEDTAVYYCNALYTSLRKYNYWGQGTQVTVSS | low polyreactivity
26 | QVQLVESGGGLVQAGGSLRLSCAASGSTFRPYAMGWYRQAPGKERDLVAAISSSGGSTYYADSVKGRFTISRDNAKNTVYLQMNSLKPEDTAVYYCAAVRRYRYPEYNHWGQGTQVTVSS | low polyreactivity
27 | QVQLVESGGGLVQAGGSLRLSCAASGSTFRPYAMGWYRQAPGKERELVAAISSGDSTYYADSVKGRFTISRDNAKNTVYLQMNSPKREDTAVYYCAKRNYWHRGGGYWGQGTQVTVSS | high polyreactivity
28 | QVQLVESGGGLVQAGGSLRLSCAASGSTFRPYAMGWYRQAPGKERELVAAISWSGGRTYYADSVKGRFTISRDNAKNNVYLQMNSLKPEDTAVYYCNRAGRQPKNTYDYWGQGTQVTVSS | high polyreactivity
29 | QVQLVESGGGLVQAGGSLRLSCAASGSTFRQNAMGWYRQAPGKERELVAAISGTAGSTYYADSVKGRFTISRDNAKNTVYLQMNSLKPEDTAVYYCAKRKITKYGYGYWGQGTQVTVSS | high polyreactivity
30 | QVQLVESGGGLVQAGGSLRLSCAASGSTFRQYAMGWYRQAPGKERELVAAITWRGDNTYYADSVKGRFTISRDNAKNTVYLQMNSLKPEDTAVYYCAARWSYRLYWGYGYWGQGTQVTLSS | low polyreactivity
31 | QVQLVESGGGLVQAGGSLRLSCAASGSTFRQYSMGWYRQAPGKERELVAAISWSGGSTYYADSVKGRFTISRDNAKNTVYLQMNSLKPEDTAVYYCAAGRGGHRYKVGYWGQGTQVTVSS | high polyreactivity
32 | QVQLVESGGGLVQAGGSLRLSCAASGSTFRRNAMGWYRQAPGKEREFVAAISSRGGSTYYADSVKGRFTISRDNAKNTVYLQMNSLKPEDTAVYYCAADKASRHSNPFYYWGQGTQVTVSS | high polyreactivity
